Test results taken from PMC4067742, “Direct Observations of Amyloid β Self-Assembly in Live Cells Provide Insights into Differences in the Kinetics of Aβ(1–40) and Aβ(1–42) Aggregation” (Chemistry & Biology, 2014).

System: trypsin
Experiment: Fluorescence lifetime after trypsin treatment of the labeled peptide
Type: physicochemical
Settings: trypsin-treated monomeric peptide, cleavage into short fragments; FLIM; mean ± SD
Source text: For the HF488 dye to function as a direct reporter of amyloid formation in vivo, its fluorescence lifetime must respond to the conformational changes associated with amyloid formation but remain largely unaffected by extrinsic factors, such as the solution conditions that the Aβ peptides may encounter in the living cell. […] That is, it is insensitive to pH changes in this range. […] Furthermore, the fluorescence lifetime of the unconjugated HF488 dye (4.0 ± 0.1 ns) is longer than that of the Aβ-conjugated dye (3.7 ± 0.05 ns), perhaps as a result of interactions between the dye and the polypeptide chain in the latter case ([Chen et al., 2010]). […]
All FLIM experiments were carried out using HF488-labeled Aβ peptides, and images were recorded by time-correlated single photon counting (TCSPC) using a confocal microscopy platform built on an Olympus Fluoview FV300 confocal scan unit. […] The excitation beam was reflected onto the sample with a 20/80 broad bandwidth coated beam splitter so that 20% of the excitation light passed on to the sample and 80% of the fluorescence signal was reflected toward the confocal pinhole. The fluorescence light was passed through a 515-nm Semrock long-pass filter (Laser 2000) and passed onto a fast photomultiplier tube (PMC-100, Becker & Hickl). Lifetimes were recorded using TCSPC circuitry (SPC-830, Becker & Hickl). […]

^HF488Aβ(1–40): Synthetic 40-residue amyloid β peptide labeled at the N terminus with Hilyte Fluor 488, purchased from Anaspec
mean fluorescence lifetime after trypsin treatment: 4.0 ± 0.1 ns
